Source: paper PMC2504289

Target: T1, CH1° 0p (unphosphorylated C-terminal domain of histone H1°) (UniProt P10922 98-194)
T1 sequence: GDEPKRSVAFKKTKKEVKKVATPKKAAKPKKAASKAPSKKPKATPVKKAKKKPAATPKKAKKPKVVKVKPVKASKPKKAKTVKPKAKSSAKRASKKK
Test: EMSA

B1: 50 bp dsDNA fragment (dsDNA)
DNA 1: CTATGATATATAGATAGTTAATGTAATATGATATAGATATAGGGATCC
DNA 2: GGATCCCTATATCTATATCATATTACATTAACTATCTATATATCATAG
B1: binds.
